The values below come from patent US10688197B2, “Non-alcoholic fatty liver regulator 14-3-3 protein” (Korea University Research and Business Foundation, priority 2015, dated 2020).

The target of assay [1] is T1, PPARγ2 S273A mutant (Homo sapiens, UniProt P37231, S273A).
T1 construct: expressed in transfected cells; host or cells: HEK-293T
T1 sequence (P37231 1-505 S273A): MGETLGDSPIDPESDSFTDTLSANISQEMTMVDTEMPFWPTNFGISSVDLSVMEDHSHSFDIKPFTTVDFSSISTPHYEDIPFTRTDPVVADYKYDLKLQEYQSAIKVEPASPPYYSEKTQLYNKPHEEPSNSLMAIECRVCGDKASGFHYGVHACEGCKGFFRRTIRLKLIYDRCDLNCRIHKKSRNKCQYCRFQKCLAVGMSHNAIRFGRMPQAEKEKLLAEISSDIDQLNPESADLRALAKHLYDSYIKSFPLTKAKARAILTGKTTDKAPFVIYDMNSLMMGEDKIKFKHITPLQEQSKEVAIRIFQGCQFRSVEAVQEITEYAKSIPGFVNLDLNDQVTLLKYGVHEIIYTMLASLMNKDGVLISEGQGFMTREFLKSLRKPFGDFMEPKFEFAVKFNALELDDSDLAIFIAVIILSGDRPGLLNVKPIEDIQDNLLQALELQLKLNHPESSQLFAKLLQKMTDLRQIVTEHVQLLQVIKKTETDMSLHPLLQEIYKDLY
Put plainly: GST-pull down assay with PPARγ2 S273A mutant. As to conditions: FIGS. 4A and 4B. It counts as binding. As to the method: 14-3-3 proteins are known to bind to phosphorylated residues of a target protein. Phosphorylated residues associated with the activity of PPARγ2 are known to be serine 112 and serine 273. Thus, PPARγ2 mutants (PPARγ2 S112A and S273A) with non-phosphorylated serine 112 and serine 273 residues were produced and binding thereof with 14-3-3 proteins was verified through GST-pull down assay.
HEK-293T cells were seeded in a 100 mm plate at a density of 2×10^6 cells per each well, and then transfected with Flag-PPARγ2 (WT) DNA (4 μg), Flag-PPARγ2 (S112A) DNA (4 μg), Flag-PPARγ2 (S273A) DNA (4 μg), and mGST-14-3-3β (4 μg) or mGST-14-3-3γ (4 μg) using an E-fection plus reagent (Lugen). As for Flag-PPARγ2 (S112A) DNA and Flag-PPARγ2 (S273A) DNA, DNA fragments amplified through polymerase chain reaction (PCR) were cloned into a Flag-tagged vector. A ratio of DNA to the E-fection plus reagent was 1:2, and this method was performed according to a manufacturer's manual. The corresponding cells were washed with ice-cold PBS and lysed using 500 μl/well of a lysis buffer (150 mM NaCl, 1 mM EDTA, 1% Nonidet P-40, 5% glycerol, 25 mM tris-HCl, pH 7.5, protease inhibitor added), and the lysed cells were centrifuged at 10,000×g and 4° C. for 10 minutes to extract proteins. […]

Assay [2] deals with HepG2 cells. Put plainly: Triglyceride colorimetric assay in HepG2 cells. The assay is classed as cell-based, human. To be noted: HepG2, overexpression, 200 μM oleic acid 72 hours, FIG. 10A. As to the method:
HepG2 cells and primary mouse hepatocytes were separately seeded in a 6-well plate at a density of 4×10^5 cells per each well, and then transfected with GFP-14-3-3β DNA (1 μg) or GFP-14-3-3γ DNA (1 μg) and si-14-3-3β (10 μM, Santa Cruz) or si-14-3-3γ (10 μM, Santa Cruz) using an E-fection plus reagent (Lugen). A ratio of DNA to the E-fection plus reagent was 1:2, and this method was performed according to a manufacturer's manual. After transfection, the cells were treated with 200 μM of oleic acid (OA) for 72 hours, and the amount of triglycerides was measured using a triglyceride colorimetric assay kit (Cayman Chemical). The corresponding cells were washed with ice-cold PBS and then scraped using a standard diluent assay reagent, the scrapping process was repeated using a sonicator 20 times to lyse the cells, and the lysed cells were reacted with an enzyme buffer solution for 15 minutes, followed by measurement using an ELISA reader (Bio-Rad Laboratories, Inc) at a wavelength of 550 nm.

With “14-3-3β: 14-3-3 isoform protein overexpressed by DNA transfection; increases the transcriptional activity of PPARγ2 by binding to PPARγ2”, the “binding with PPARγ2 S273A mutant” value in assay [1] is on record as “suppressed”. In addition, the triglyceride accumulation result in assay [2] is “further increased”.

Regarding “14-3-3γ: 14-3-3 isoform protein overexpressed by DNA transfection; decreases the transcriptional activity of PPARγ2; proposed active ingredient”, the “binding with PPARγ2 S273A mutant” value in assay [1] was “suppressed”. Further, the triglyceride accumulation entry in assay [2] was “reduced”.
